These results are taken from patent publication US7919091B2, “Lipolysis stimulated receptor (LSR) specific antibodies” (Serono Genetics Institute S.A., priority 1997, dated 2011).

Assay [1] in a line: Change in weight and plasma triglycerides in rats under AdipoQ infusion. The format is in vivo, rat. The settings on record: 3-day ip infusion. How it is done: Osmotic pumps were surgically inserted into the abdominal cavities of 12 Sprague-Dawley male rats of 400-450 g. The osmotic pumps contained either 2 ml of PBS (phosphate buffered saline), pH 7.4 (control 6 rats), or 2 ml of recombinant AdipoQ protein (5 mg/ml PBS, 6 rats). These pumps were designed to deliver 10 μl/h (50 μg AdipoQ/h). The animals are weighed and individually housed in metabolic cages. 3 animals in each group are subjected ad libitum either to a normal diet or to a fatty diet (day 0). The fatty diet consists of a normal diet supplemented with 2% (w/w) cholesterol, 10% (w/w) saturated fatty acid in the form of vegetaline, [lacuna] % (w/w) sunflower oil and 15% (w/w) sucrose. On day 3, the animals are weighed and blood samples are obtained from the caudal vein. The quantity of plasma triglycerides was measured using an enzymatic kit.

A further assay concerns the target T1, LSR (Rattus norvegicus, UniProt Q9WU74).
T1 construct: from tissue; host or cells: rat liver plasma membranes / solubilized rat liver membrane proteins
T1 sequence (Q9WU74 36-593): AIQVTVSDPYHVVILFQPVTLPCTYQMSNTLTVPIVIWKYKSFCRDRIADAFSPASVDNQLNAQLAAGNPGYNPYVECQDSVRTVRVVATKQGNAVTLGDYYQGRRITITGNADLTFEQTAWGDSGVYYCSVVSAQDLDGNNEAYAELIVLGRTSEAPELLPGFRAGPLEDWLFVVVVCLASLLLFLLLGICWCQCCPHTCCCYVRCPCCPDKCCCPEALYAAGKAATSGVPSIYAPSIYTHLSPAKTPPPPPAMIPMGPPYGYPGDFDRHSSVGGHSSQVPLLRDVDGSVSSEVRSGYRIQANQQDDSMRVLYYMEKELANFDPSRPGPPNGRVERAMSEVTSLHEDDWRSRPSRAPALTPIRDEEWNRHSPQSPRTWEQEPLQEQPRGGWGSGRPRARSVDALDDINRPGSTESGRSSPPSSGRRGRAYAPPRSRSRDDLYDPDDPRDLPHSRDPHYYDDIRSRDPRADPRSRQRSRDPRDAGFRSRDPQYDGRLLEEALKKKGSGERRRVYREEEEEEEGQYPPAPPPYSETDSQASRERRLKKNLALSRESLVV
T1 sequence (Q9WU74 36-525 isoform Q9WU74-3 limits assumed): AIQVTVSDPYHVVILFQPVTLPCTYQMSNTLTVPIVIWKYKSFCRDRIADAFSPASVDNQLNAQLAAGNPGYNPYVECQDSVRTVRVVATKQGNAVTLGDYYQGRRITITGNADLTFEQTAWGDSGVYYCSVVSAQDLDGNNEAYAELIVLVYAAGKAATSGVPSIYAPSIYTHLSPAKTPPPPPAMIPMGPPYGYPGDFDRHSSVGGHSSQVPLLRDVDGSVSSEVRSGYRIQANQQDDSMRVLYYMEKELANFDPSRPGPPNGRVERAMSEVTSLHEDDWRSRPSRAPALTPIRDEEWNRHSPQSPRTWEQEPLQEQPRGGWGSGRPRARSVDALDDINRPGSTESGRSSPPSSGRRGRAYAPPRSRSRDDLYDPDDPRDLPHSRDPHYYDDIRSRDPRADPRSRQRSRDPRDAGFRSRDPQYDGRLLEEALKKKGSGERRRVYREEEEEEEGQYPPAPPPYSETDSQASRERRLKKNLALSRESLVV
The assay can be described thus: Effect of AdipoQ on LSR activity in primary culture of rat hepatocytes. The format is cell-based. The note with it: 25 ng/ml AdipoQ, in the presence of oleate. How it is done:
Primary cultures of rat hepatocytes were prepared and distributed into 6-well plates (9000,000 cells/well). After 48 h, the cells were washed once with PBS (2 ml/well) and incubated for 30 min at 37° C. with 20 ng/ml of recombinant murine leptin. The cells were then incubated for 4 h at 37° C. with increasing concentrations of recombinant murine AdipoQ proteins and 20 μg/ml ^125I-LDL in the presence or in the absence of 0.5 mM oleate. The binding, internalization and degradation of lipoproteins were measured as indicated in Example 1.

Assay [2] is described as follows: Food intake in ob/ob and db/db mice under AdipoQ. The format is in vivo. The note with it: ob/ob and db/db obese mice, 100 μg daily for 5 days. How it is done:
Recombinant AdipoQ protein (100 μg) or PBS alone were injected daily for 5 days through the caudal vein of ob/ob or db/db mice kept in a metabolic cage. The mice are weighed each day and the quantity of food consumed was also measured. The results correspond to a mean food intake and a standard deviation for 4 mice in each group.

Assay [3] in a line: Postprandial lipemic response in rats after AdipoQ injection. The note with it: high-fat meal, 1 mg AdipoQ i.v. The format is in vivo, rat. How it is done: Male Sprague-Dawley rats (400-450 g), starved since the day before, were force-fed with a meal which was very high in fat (t=0) (60% fatty acid of which 37% saturated, 27% monounsaturated and 36% polyunsaturated, 20% protein and 20% carbohydrate, the total providing 56 kcal/kg of body weight) and received immediately afterwards an intravenous injection (femoral vein) of either 300 μl of PBS alone or of the same volume containing 1 mg of mouse recombinant AdipoQ protein. Blood samples were collected at various times (0, 2, 4 and 6 h). The quantity of plasma triglycerides was measured using an enzymatic kit. The results are presented as mean values and standard deviations on 3 animals.

Assay [4] is described as follows: Postprandial lipemic response in mice after a high-fat meal. It is filed as in vivo. The note with it: ob/ob mice, 2.5 mg lactoferrin with 0.5 μg leptin i.v. How it is done: Control, ob/ob and db/db mice, starved since the day before, are force-fed with a meal which is very high in fat [60% fat (37% saturated, 27% monounsaturated and 36% polyunsaturated fatty acids), 20% protein and 20% carbohydrate] providing 56 kcal of energy/kg of the weight of the animal. Immediately after the meal (time=0 hour), the mice are injected intravenously with 200 μl of physiological saline solution. At various times, 20 μl of blood are collected via the caudal vein in tubes containing 90 μg of disodium EDTA, and after separating the plasma by centrifugation, the plasma concentration of triglyceridemia is determined with the aid of an enzymatic assay kit. Each point on the curves presented corresponds to the mean with standard deviation obtained for 3 measurements per animal and for 3 different animals.
The procedure is the same as above, except that immediately after the meal (time=0 hour), the mice are injected intravenously with either 200 μl of physiological saline solution, or 200 μl of the same solution containing 50 μg of murine recombinant leptin.
ob/ob mice, starved since the day before, are force-fed with a meal identical to that described above. […] Blood is collected between 2 and 3 hours after the meal and the plasma concentration of triglycerides (TG) is measured. […]

B1: AdipoQ: mouse recombinant AdipoQ protein with hexahistidine peptide, expressed in E. coli; homologue of complement C1q (protein)
chain: SHAEDDVTTTEELAPALVPPPKGTCAGWMAGIPGHPGHNGTPGRDGRDGTPGEKGEKGDAGLLGPKGETGDVGMTGAEGPRGFPGTPGRKGEPGEAAYVYRSAFSVGLETRVTVPNVPIRFTKIFYNQQNHYDGSTGKFYCNIPGLYYFSYHITVYMKDVKVSLFKKDKAVLFTYDQYQEKNVDQASGSVLLHLEVGDQVWLQVYGDGDHNGLYADNVNDSTFTGFLLYHDTN
modifications: left off: small tags and cut ends
notes: mouse recombinant AdipoQ protein with hexahistidine peptide, expressed in E. coli; homologue of complement C1q
Consider B1, for which, in assay [1], the “level of plasma triglycerides” value is reported as “reduced”. Further, the weight result in assay [1] (normal or fatty diet) was “loss in weight”. Moreover, the LSR activity entry with LSR was “increases”. Moreover, the food intake entry in assay [2] was “reduces”. For the same molecule, in assay [3], the postprandial lipemic response result is recorded as “massively reduce”.

B2: lactoferrin: human lactoferrin (Serva), blocks the activity of LSR (protein, UniProt P02788 20-710, looked up)
Lactotransferrin: GRRRSVQWCAVSQPEATKCFQWQRNMRKVRGPPVSCIKRDSPIQCIQAIAENRADAVTLDGGFIYEAGLAPYKLRPVAAEVYGTERQPRTHYYAVAVVKKGGSFQLNELQGLKSCHTGLRRTAGWNVPIGTLRPFLNWTGPPEPIEAAVARFFSASCVPGADKGQFPNLCRLCAGTGENKCAFSSQEPYFSYSGAFKCLRDGAGDVAFIRESTVFEDLSDEAERDEYELLCPDNTRKPVDKFKDCHLARVPSHAVVARSVNGKEDAIWNLLRQAQEKFGKDKSPKFQLFGSPSGQKDLLFKDSAIGFSRVPPRIDSGLYLGSGYFTAIQNLRKSEEEVAARRARVVWCAVGEQELRKCNQWSGLSEGSVTCSSASTTEDCIALVLKGEADAMSLDGGYVYTAGKCGLVPVLAENYKSQQSSDPDPNCVDRPVEGYLAVAVVRRSDTSLTWNSVKGKKSCHTAVDRTAGWNIPMGLLFNQTGSCKFDEYFSQSCAPGSDPRSNLCALCIGDEQGENKCVPNSNERYYGYTGAFRCLAENAGDVAFVKDVTVLQNTDGNNNEAWAKDLKLADFALLCLDGKRKPVTEARSCHLAMAPNHAVVSRMDKVERLKQVLLHQQAKFGRNGSDCPDKFCLFQSETKNLLFNDNTECLARLHGKTTYEKYLGPQYVAGITNLKKCSTSPLLEACEFLRK
Take B2: the “reduction in the lipemic response induced by leptin” value in assay [4] is “suppressed”.
